Ends that are not written are not given here. Alexa Fluor 488 = fluorescent dye attached through a C5 maleimide linker to the added cysteine
Key:
[1] = target: the molecule itself; test: cross-linking; disulfide cross-linking through the C-terminal Cys; unlabeled TMJM in 14:1 PC or 22:1 PC liposomes ± 3% PIP2, lipid-to-peptide ratio 300:1; 19.3 mM HEPES, 1 mM EGTA, shaken 3 h at room temperature (19-21 °C); non-reducing SDS-PAGE (16% tricine gel), silver stain
[2] = target: the molecule itself; test: single-molecule photobleaching (TIRF) in SMALPs; Alexa Fluor 488-TMJM in 22:1 PC or 14:1 PC SMALPs with 3% biotin-PE, ± 3% PIP2 or 10% POPS, ± 1 mM Ca2+; lipid-to-peptide ratio 300:1; SMALPs (20 to 30 nM peptide) immobilised on PEGylated slides via biotin-streptavidin; SMALP buffer 19.3 mM HEPES, 150 mM NaCl, 1 mM EGTA; photobleaching steps counted for each SMALP

| Protein | binding result [1] | stoichiometry N [2] |
| --- | --- | --- |
| GSGNLAVIGGVAVGVVLLLVLAGVGFFIHRRRKCWN (EphA2 residues 531 to 563: a short stretch of extracellular residues, the TMD and the first five JM residues (HRRRK); added residues at the C terminus; the free cysteine forms the disulfide in the cross-linking experiment; Free Cys at the JM end; also called unlabeled TMJM; source: synthetic peptide (F-moc chemistry, Thermo Fisher)) [TMJM peptide (unlabeled)] | binds |  |
| GSGNLAVIGGVAVGVVLLLVLAGVGFFIHRRRKC(Alexa Fluor 488)WN (also: Alexa Fluor 488 (C5 maleimide) on the added C-terminal cysteine, EphA2 residues 531 to 563: a short stretch of extracellular residues, the TMD and the first five JM residues (HRRRK); added residues at the C terminus: a cysteine for dye conjugation and a tryptophan as fluorescent reporter; Reconstituted in 14:1 PC or 22:1 PC bilayers with 3% biotin-PE and solubilised as SMALPs; also called Alexa Fluor 488 labeled TMJM peptide; source: synthetic peptide (F-moc …)) [TMJM peptide labeled with Alexa Fluor 488] |  | 2 |

From PMC7900517, “PIP2 promotes conformation-specific dimerization of the EphA2 membrane region” (The Journal of Biological Chemistry, 2020)
